Key:
Conditions in all cases: EMSA: 1 nM probe, 1 mM Tris-HCl pH 7.5, 0.1 mM EDTA, 0.2 mM DTT, 5 mM MgCl2, 10 mM KCl, 20 min 37 C; PhoP with 0.1 M acetyl phosphate; footprinting DNase I …
[1] = molecular target: T1, PhoP (Escherichia coli O157:H7 (EHEC; strain EDL933?)) (UniProt Q8X738); experiment: competition
T1 sequence: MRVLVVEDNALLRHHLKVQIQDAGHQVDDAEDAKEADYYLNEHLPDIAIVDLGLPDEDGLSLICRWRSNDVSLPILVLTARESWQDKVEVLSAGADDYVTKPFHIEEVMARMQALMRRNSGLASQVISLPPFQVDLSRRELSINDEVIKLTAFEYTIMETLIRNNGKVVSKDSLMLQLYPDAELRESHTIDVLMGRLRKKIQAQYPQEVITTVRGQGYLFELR

[2] = test system: T2, LmiA (Z4267) (Escherichia coli O157:H7 (EHEC; strain EDL933?)), ORF:92023632; experiment: EMSA
T2 sequence: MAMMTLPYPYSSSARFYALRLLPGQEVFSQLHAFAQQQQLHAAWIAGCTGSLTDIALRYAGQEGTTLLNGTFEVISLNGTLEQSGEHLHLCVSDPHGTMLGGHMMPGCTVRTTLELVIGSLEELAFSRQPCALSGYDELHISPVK

[3] = molecular target: T1, PhoP (Escherichia coli O157:H7 (EHEC; strain EDL933?)); experiment: EMSA

Sequence	binding [2]	binding [3]	further results
GTCCAGTCAAAGAAAACAATTATCTGACTTACGTCACGTTTTCAGCCCCGCCCCTGTGGAATTTATTCCACTTTGCAGAATCACGAATAAGCGTAGCAAAATCTTTTCGTTGTGCCGTCACAAACCCTGACTTATATCAGAATATGACTGATGCAGCGTCGATATTATCCGTAATACGTCCGAGTTTCGGAGTACTCCAATGATGACATTGCCCTACCCATATT (double strand) [PlmiA unlabeled competitor]	–	–	binding [1]: binds
CATTAGCCATTGGAAACTCACGTAATCATTAATTATGAATATTCCATTAAATAGTACTGTACAACAGCTTCCTTTCTACTCTATTCTTAGACGATGTAAGTTCACCATATTTTTTCTCATTGTTCAACCACCAGGATGAATAAAATTTAAAAATGTTATCCTCATATAAAATAAAACTTCTCAATGGTGCGATGCG (double strand) [PLEE4]	no binding	–	–
GTCCAGTCAAAGAAAACAATTATCTGACTTACGTCACGTTTTCAGCCCCGCCCCTGTGGAATTTATTCCACTTTGCAGAATCACGAATAAGCGTAGCAAAATCTTTTCGTTGTGCCGTCACAAACCCTGACTTATATCAGAATATGACTGATGCAGCGTCGATATTATCCGTAATACGTCCGAGTTTCGGAGTACTCCAATGATGACATTGCCCTACCCATATT (double strand) [PlmiA]	–	binds	–
GTCCAGTCAAAGAAAACAATTATCTCAGCCCCGCCCCTGTGGAATTTATTCCACTTTGCAGAATCACGAATAAGCGTAGCAAAATCTTTTCGTTGTGCCGTCACAAACCCTGACTTATATCAGAATATGACTGATGCAGCGTCGATATTATCCGTAATACGTCCGAGTTTCGGAGTACTCCAATGATGACATTGCCCTACCCATATT (double strand) [PlmiA-1]	–	no binding	–
AGATTCATCTGCAGGCTCTGAAGTAAGTATACGTGTGAATATTATTGCTTGAAAAAGCGTATTGGATAATATATACAGTATATGTACTTTATGTACATTGCAACTATTTAAATAATATAATAGTTGCCTATGGGATAATTTGGTTATTTATAACCAGGTAAATGTCTAAATTAGACAAAAGGAGAAAGATCAATGGAAGCAGCAAATTTAAGTCCTTCTGGTGCAGTAATG (double strand) [PLEE2/3]	no binding	–	–
AATATGGGTAGGGCAATGTCATCATTGGAGTACTCCGAAACTCGGACGTATTACGGATAATATCGACGCTGCATCAGTCATATTCTGATATAAGTCAGGGTTTGTGACGGCACAACGAAAAGATTTTGCTACGCTTATTCGTGATTCTGCAAAGTGGAATAAATTCCACAGGGGCGGGGCTGAGTTGGTGACGAGGGTCAGATAATTGTTTTCTTTGACTGGAC (double strand) [PlmiA-2]	–	no binding	–

Reference: PMC7667037
